{"source": "patent US20120027763A1", "about": "(TRANSGENE BIOTEK, published 2012)", "target": "T1, TNFRSF17-epag", "T1 construct": "also called TNFRS17-epag", "T1 peptide": "KSRTGDEIILPRGLC", "assay": "screening of ascites mAbs by specific Ag binding activity, after immunization with SEQ ID NO:2"}
{"binder": "TBL-CLN1 (antibody, V domains shown, also called TBL-CLNI) VH: EVKLVESGGGLVKPGGSLKLSCAASGITFSTYAMSWVRQTPEKRLEWVASITTGGNVYFPDSVKGRFTISRDNARNILYLQMSSLRSEDTAMYYCAGGITATRGTFAYWGQGTTLTVSS VL: DVLMTQTPLSLPVSLGDQASISCRSSQSIGHSNGITYLEWYLQKPGQSPKLLIYKVSNRFSGVPDRFSGSGSGTDFTLKISRVEAEDLGVYYCFEGSHVPLTFGAGTKLELKR", "values": [{"measurement": "binding result", "value": "binds"}]}
